To fix the notation:
T1: KR-mutant CHC hub (K1163E and R1165D) (bovine, UniProt P49951 1074-1675, K1163E | R1165D)
T1 sequence (looked up): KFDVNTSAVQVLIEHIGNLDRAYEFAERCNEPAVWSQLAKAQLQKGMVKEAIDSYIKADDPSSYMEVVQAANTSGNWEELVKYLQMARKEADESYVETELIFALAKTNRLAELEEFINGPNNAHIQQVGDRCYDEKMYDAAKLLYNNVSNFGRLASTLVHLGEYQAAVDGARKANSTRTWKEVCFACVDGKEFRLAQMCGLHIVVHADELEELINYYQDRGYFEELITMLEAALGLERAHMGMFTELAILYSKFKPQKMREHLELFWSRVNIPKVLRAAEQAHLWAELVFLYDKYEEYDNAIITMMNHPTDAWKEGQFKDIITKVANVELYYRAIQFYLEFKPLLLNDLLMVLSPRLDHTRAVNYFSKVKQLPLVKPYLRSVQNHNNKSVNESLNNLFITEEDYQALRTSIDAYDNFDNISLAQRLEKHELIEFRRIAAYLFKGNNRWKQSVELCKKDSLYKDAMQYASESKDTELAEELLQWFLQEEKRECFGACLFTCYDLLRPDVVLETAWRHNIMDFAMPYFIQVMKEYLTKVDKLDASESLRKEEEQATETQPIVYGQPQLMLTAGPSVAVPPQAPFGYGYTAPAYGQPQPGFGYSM

B1: Bovine clathrin heavy chain residues 1074–1675 (hub), wild type (domain or fragment, UniProt P49951 1074-1675, looked up)
chain: T1 sequence (looked up) with E90K, D92R
B2: Human neuronal LCb, his-tagged fusion protein, wild type (natural protein, UniProt P09497 1-229, looked up)
chain: MADDFGFFSSSESGAPEAAEEDPAAAFLAQQESEIAGIENDEGFGAPAGSHAAPAQPGPTSGAGSEDMGTTVNGDVFQEANGPADGYAAIAQADRLTQEPESIRKWREEQRKRLQELDAASKVTEQEWREKAKKDLEEWNQRQSEQVEKNKINNRIADKAFYQQPDADIIGYVASEEAFVKESKEETPGTEWEKVAQLCDFNPKSSKQCKDVSRLRSVLMSLKQTPLSR

The series “crystal structure” concerns the molecule itself. Briefly: crystal structure.
Series [1] addresses T1, KR-mutant CHC hub (K1163E and R1165D). Briefly: SPR.
The target of series [2] is B1. Briefly: SPR. For orientation: Surface plasmon resonance follows binding to a sensor surface in real time, without labels.

Positions count from the first letter of the chain named.

As to B1, the “stoichiometry N” value in the series “crystal structure” was 3. Turning to B2, the Kd in series [1] was determined as 59.1 nM; in series [2], 25 nM.

As usually defined, the stoichiometry N is the number of molecules, sites or subunits per partner or assembly. As usually defined, the Kd is the free concentration of one partner at which half of the binding sites on the other are occupied at equilibrium, for simple one-to-one binding. Read a high Kd as lower affinity.

The values are drawn from publication PMC2975025 (Developmental cell, 2010).
